Measured values reported in patent US20090269346A1.
pKd: −log10 of the molar value. One block for each substance: values may come before it.

Legend:
GFRα-1 [1] = assay: solid-phase assay (ELISA): RAP-GDNF concentration varied on GFRalpha-1, OD 450 nm; per paragraph 304 GFRalpha-1 coated on the plate and bound protein detected with anti-GDNF mAb
GFRα-1 [2] = assay: solid-phase binding assay (FIG. 11)
LRP1 CR3-5 (human) = assay: solid-phase assay, coated CR protein, RAP-IDU detected by iduronidase activity
Sequence of LRP1 CR3-5 (human) (Q07954 852-973): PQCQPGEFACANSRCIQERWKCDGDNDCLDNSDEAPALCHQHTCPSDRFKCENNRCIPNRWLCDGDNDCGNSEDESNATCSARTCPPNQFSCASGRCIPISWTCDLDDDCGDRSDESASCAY

LRP2 CR3435 (human) = LRP2 CR3435 (human) (UniProt P98164); assay: solid-phase assay: CR protein coated on the plate, RAP-IDU titrated, bound iduronidase activity read as rfu
[3] = target: LRP2 CR89 Y1042W V1047D (human) (UniProt P98164); assay: solid-phase assay, coated CR protein, anti-RAP, OD450
Sequence of LRP2 CR89 Y1042W V1047D (human) (P98164 1022-1105 Y1043W/V1048D limits assumed): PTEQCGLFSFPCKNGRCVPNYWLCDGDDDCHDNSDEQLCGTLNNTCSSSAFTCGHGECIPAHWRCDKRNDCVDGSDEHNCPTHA

EC50 (read off the curve) (GFRα-1 [1]): 2 ng/mL
Kd (GFRα-1 [2]): 5 ng/mL
Substance: RAP-GDNF fusion protein (from UniProt P39905 78-211)

pKd (LRP1 CR3-5 (human)): 8.52
pKd (LRP2 CR3435 (human)): 6.14
Substance: RAP-IDU (fusion of RAP and human α-L-iduronidase) (from UniProt P35475 28-653)

% max bind [3]: 11%
Substance: wild-type RAP d3 (from UniProt P30533 235-353) (ligand)
